We go through 70 sequences from the domain aggregation screens of Martell et al. (2025).

A value given as a limit tells only on which side of the number the result lay.

The nature of the data set: soluble fraction after stress (log2 fold change); higher = more stays soluble; pooled small domains, quantitative proteomics. To be noted: stress: 75 degC.
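Also: 20 min heating vs room temperature control held 20 min.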

For the sequence “HMETPQIVARGDLITMVFRSGSLVLTAKGKALENGAMGDTIRVVNSDSNKTLAARVSASREVTVSE”, the “soluble fraction (log2)” value is -0.549. As for “HMETPSNTAGITHATSDGYIFKGESDIIGRNSFGFIVKHGSHNHIIPFDSLRGTKWEYLINKYT”, the “soluble fraction (log2)” value was found to be 0.000248. Next, “HMETSVDEVYKKIQAYIEAEDKHKPLSDQKLAEQLQSDGLKVSRRTVAKYREKLNIASSSKRKR”: 0.242; “HMETTVPNVLNHNISTGEILLKENNLNFRIQYIPSNKDEAVGTIINSVPTSGEKVKFGTVVDLKVL”: 0.146; “HMETVRHFRLDWSQAADRLDKVLASLMNDVSRARIQEWIRLGAVSVNGEILTDVRAKVAGGDAIDVTPQTA”: -0.722. The result for “HMETVRLSVDAQGAYYWNEQRVDDSALPDLLREASGRKPQPDLHIRGDKAVRYERVAEAMAAAQRAGLKKI” reads 0.272; that for “HMETVVTEVKTTDVVNIRTSDSETADKLSKAAIGDTFPLLEERGNGWSKVAYNGEEAFIKSDYLEPSKTE”, 0.0124; that for “HMETYEFNITDKEQTGMRVDKLLPELNSDWSRNQIQDWIKAGLVVANDKVVKSNYKVKLNDHIVVTEKEV”, 0.0567. The result for “HMETYPINVETTGTNVLLRTGPSTSSNIIKTITDKGTVFLSIERGINSDWQKVVTPDGTIGYMSGKY” reads 0.00405; that for “HMEVAVQFIEFKIPENHAWIGKEIREITFPPESILVLIIRDGKKLVPNGKTVLKEGDSLILSGKASD”, -1.43; that for “HMEVDDEAIYQGHEPSIRLHRLLKDVGYNSALLPSVVTQIFKDFPGIELAKALPIAMQLLNED”, -0.617. Regarding “HMEVFGDTKEEQMIIDILKLGITDLEHLQAKSMLEPAIFSQTLTMLEISGKIRPLGAGHWTL”, the “soluble fraction (log2)” value was -2.87. The result for “HMEVFTPSEANVAEAREILAAMATAKANGEGATVYKGRLVDIASIKQAEVIVRQSEMIQSAH” reads 0.696; that for “HMEVIDQLFKIALTLFDIDKGENNSISQDLVDKVIEQMKTTAPTFIKRELSEDEVKKLRFEIQNHFNV”, -0.482.

For “HMEVKSGFVHLTGAVKSPGVYPISIGMRLFEVIALAGGFTAKADRESVNLARTVTDGEQIIVSGSG”, the “soluble fraction (log2)” value was -3.72. Next, “HMEVLEGFIEDIKFKSEESGYTVAKLNNRNKSIVIVGTMPFISEGQHVKLTGEWKIHQKFGAQFNVKELEE”: -0.923; “HMEVMYFIYQQEEPMRIDKFLVNEMEDFSRNSIQIYIKDNHVLVNDKVVKANYILKKGDAISITIPDPI”: -1.14; “HMEVNMEEKMEFVHSYIKTHKTFLFRQLLSESKSRTQVIVTFLVILELIKGGKISVTQENRTDDILINSL”: 0.0528. As for “HMEVPDTIIRLRELVAAMPEQWQKVYRLVFMEGLSKAKAGKKIGISDVRVGQLVKKINAAIAGDETLK”, the “soluble fraction (log2)” value is -1.01. The result for “HMEVPMELPRQLRANRERLGLSQEDVAHAIYVSRQTMSSWERGKTYPDVQSLMLLSHLFGISIDELVKGDV” reads -1.57; that for “HMEVPVQYIKFKIPENHFWAKKKVADIILPPETLLVLLQRGSDKMIPDGETVLLPEDTLVLIAKAPG”, -0.479.

For the sequence “HMEVSVPDFTGMSKSDAQNAAKEAGLTVNFEEDYDNQVPAGQVIRSNPSAGEKVKKNSSVTVTLSKGSN”, the “soluble fraction (log2)” value turned out to be 0.128. Next, “HMEVSYSLPRFHKGKNPYVDFYQVDPRTLRMRRKKFLLRGVRDAVLLEQRAADLVALLTERLHSGWNAWDD”: -2.1. With “HMEVTENQEKHAYQEAMDQALRFLAPRFLSRAELTRKLLQKEHDRDVIDAVIDRLEELDYVDDAR”, the “soluble fraction (log2)” value was -0.013.

Consider “HMEVTLGLGSMVRLLGEPYLGSTGRVVELPDQAERFASGLTAKVAVVERHDGELIRVPVTNLLLME”, for which the “soluble fraction (log2)” value was -1.25. For “HMEVTLTLKSFGTAKVAVIKAIQSITGLGLMDAKKLVDAAPSVIKEKISPSEAEQYKKTLVDAGAEVEI”, the “soluble fraction (log2)” value was -2.31. The result for “HMEVVVPDFEKIYIRDLDKFVEGHNVRYEIVDSIYNLEKDKGTVVDQDPEPGSKVKHGRVIYLTVNAML” reads -0.231; that for “HMEVVVPEDLDAALQQASRAQSFFSSLSYTHKKEYVAWINEAKRAETRAMRIQKTITMLESGQRGH”, -2.35; that for “HMEWEVHSVTVTPELSGERLDVAATALLSQFSRALVQRWIDANELTLNERPVKAKSKVRVGDLIAVKAK”, -1.06.

For “HMEWLENIKKLKKEKGLTNESLSEKSGISVGTLNKLLSGATTDPKLSTLRPLADALEVSLDELLAI”, the “soluble fraction (log2)” value was -0.0723. For the sequence “HMEWTDIPTHKVPNVVGKSVEEAKKKLSKFTIEYSGTGEKVVAQSPDAGEKLEEGGTVRLLL”, the “soluble fraction (log2)” value was -0.136. The result for “HMEYEETMSQIKHNLNLLPRQQRVIIEMAKFDELTPAEIAKQLGISVQTVRNQLSTGLKKLRQLL” reads 0.0391. Next, “HMEYKKKIGELLIDGNKKLKAANIDTYILDTQLLLGKVLGKDKLYLITNKDEEVSNFKEREFYSLIEKRI”: 0.0872; “HMEYMKQRLYDIIELFKRSFSPSFSEEEKKKLENVLQDDFLRKAYEQLSDEVFIEEKFREFDGY”: -2.88; “HMEYPNEIARIFNQIPELNVSAVARTLGINKSLLSSYIYGMKKPSPERTEEIKSAIRKIGQNMLAV”: -0.927. Next, “HMEYQSLVLDFLEQGDFNAEKLKDYQRAFAKQNGMQTLPSKSQILQAYFQLVEEKKINKNSDFELLLRKR”: -0.32; “HMEYSNLGEALRRLSEIDLQIILLKYSHGFSIKEISKILDIKEVNLYKRNKRALNKLKKILAEMEVLSN”: -0.34; “HMEYYDDEELDRFRGVEADAYDEDAVNEFRDVLYTLQEIEVAGWLRSLQLRAINLPDELKDEAFLI”: -1.48. For “HMEYYEDEELDRFRGRNSDQYSDAEIEEFNEILTTLRSEEVAGWIRSLQLREIALPDELKDDVILLVG”, the “soluble fraction (log2)” value is -0.903. Regarding “HMEYYIMPVANLHKVVVDGKDMSNLISNNAIAVKANVIDEGQIQIKPGEIIITTPAGVSPEEAVRSP”, the “soluble fraction (log2)” value is at least 1.04. The result for “HMFANQLLLTRFDLNYIKSDVLSRQIDVLGIPIKKLTIEANNKSIWLQGTSQSLSKVRELIGIIDIRENA” reads -3.38. In the case of “HMFAQDKKFITYKVKEGETVQSISKALSITPYDLLKLNPDIKDNVSQDDLLIIPNKQYDPLGDI”, the “soluble fraction (log2)” value amounted to 0.378. The result for “HMFDENVKLIENEYDVSIISRGSELKVMGDVENVDKAARALRSMLAMINKGESLTEQNVRYVLTLVNEGNE” reads -0.735; that for “HMFDFLELGQAIQDAREKQRITREELAEELGISARHLQSVEKEGQYPSFRLFIQLVTMFHISVDQYI”, -0.0535.

On to “HMFDLATVKRVAEEAGMKFTIHPVELRAAHPNTAVLTLKSKAGRILVLKAASVGGGRIRVTEIDGVPAD”, for which the “soluble fraction (log2)” value was -0.335.

Take “HMFDLDIEQIANDLKHGVMPNLYGLSLQDALYLLEAKGIRVKVAGSGSVVNQSIKTGAYVGSGSVLKLEL”: the “soluble fraction (log2)” value was -1.78. For “HMFDLSQRQEQIIEIVRKHGPITGEKIADLLYVTRAALRPDLAILTMSGYLEAKPRVGYTYK”, the “soluble fraction (log2)” value is -1.64.

Consider “HMFDMLGDQIKKYRKEKKMSQEELAIPLNVVRQTVSKWENNLSVPDAELLIRLAEVLEISVAELLGT”, for which the “soluble fraction (log2)” value was -0.378. The result for “HMFDTVFIVRKTSDKPLDGLRTYLNSIGDSLVIGEDDEAFKVHVHTNHPGKVLEEAITYGALQTVKIENMR” reads -1.07; that for “HMFDTVTIGRKIAELRKAHNMTQFELADALGISFQAVSNWERGASMPDISKLPELAEIFGVTIDEVLGK”, -1.5.

Take “HMFEATGKITGTEVSFRRKPTTDSERILFFDINTEFRVIGINNGWYKGVYQGKTGYVRSDFVEIVGG”: the “soluble fraction (log2)” value was -2.05. The result for “HMFEEPYLATYPVLIDPKLAFNVLDTMLEGLEVKMDQDEETGAISVLAPASIHTKITEYLDALSKQ” reads -0.0924; that for “HMFEERKKDWNLTGLLDDVIRRYIHQLTNDELNEINLEKSSGMPDEEIKNGIKLPLAVMQQRRETWGS”, -0.252. The result for “HMFEQRLRQAMKELRLKQVQVAGLTGKSRGAISQYLSGDRVPPDGVQREMAIALGLEADYFSR” reads -0.85.

Consider “HMFERFIFTDEVYIRLKKSGLPQTTLRPLLEIHGKSFDHNEINIILSGLIPNQDFERYAQIIKSHSRF”, for which the “soluble fraction (log2)” value was -4.24.

On to “HMFEYDEIMEQSVPKIAWGSLLTIMKKASSHKEMLWYINETYKNGWSRSMVLNQIAMASYERSLIE”, for which the “soluble fraction (log2)” value was -0.732. The result for “HMFFDKIIVDFLADGSRIDKYISTLYPDISRTHIQRLIAEQFILVNDSVVKSNYKLSTNDVVLIHIPEA” reads -3.01; that for “HMFFMTMGEKIQLLRKKQNWSQETLAEKLSVSRQAVSLWERDESQPELDKLLKLAKIFSVTTDYLIDDSVT”, -3.19. Next, “HMFGGIEFGWSQLPDGRVEYIIQLDDQAIAALKNGRSLTSSLPPEVQNADRIRIQYGAGPVEKGLLLQ”: -0.206; “HMFIEMDEPEKILHRILNEANGKLELDKIGYRAEWPIGKVLTVLMSLELKGVVQSHPGKVYSL”: -0.371. The result for “HMFIGFLHQLKEAGVPVSIREYLDFLSGLDKGITNLNTNSFYHFARASLVKDERHYDRFDRTFSEFFEGAL” reads -3. As to “HMFIQLSQEEKKVVEGLQQRSKTHLDALALEVGQNISKTAAMLMELEMKGVVRALPGKYYEL”, the “soluble fraction (log2)” value was -1.1.

Take “HMFKEVPVPDVKGMTLEEAKLALEKEGFILGKTEEAESTEVAAGKIISQNLEAGKIAKQGTSVNLVVSKGK”: the “soluble fraction (log2)” value was 0.454. The result for “HMFKLPRTIGTFEDSDVVIGAGKFGPYIMHNKKFVSLPKSEDPLTIGLERAIELISAKREQEKQRH” reads 0.265.

Regarding “HMFLPFFDNLRKAGVPVSLREFLGFLEGMKAGLATYDIDAFYFLARTTMVKDERNLDKFDRAFSATFKG”, the “soluble fraction (log2)” value is -1.02. The result for “HMFNDGEIAIYTDPRGDAGETQIWKRGKGYYGQNDSFDFEAKDKKELEMKLKRWGYVLIAGSIDE” reads -0.435; that for “HMFNGDPTTRESILASARAEIDQYGIIGLRLSAVAEKAQVSVPLIYKYFEDRDGLLAVVLGDW”, -1.21; that for “HMFNTWLGEIRSNTGANVRSGPDASAAIVDARPNETVVRVIGQSGNWLQIGDKQFVAQSLVAP”, -0.0837.

With “HMFPDLTGDELRIVDLLNTANDLQVNIITAKTNLPISRVTSLLFQLEMKGVVKPLAGGMYHLLG”, the “soluble fraction (log2)” value is -1.49. On to “HMFPELDEEEQKITKLLQAQNDLPANIIAVKTALNIGTTQAKLFSLEMKGVVKPYAGGFYHLL”, for which the “soluble fraction (log2)” value was -2.73.
